Measured values taken from patent US20030049211A1, “Remedies and preventives for dental diseases” (priority 2000, published 2003).

Key:
PTHrP (1-34) [1] = molecular target: T1, PTHrP (1-34) (Homo sapiens, UniProt P12272); assay: ELISA, determination of antigen-binding ability; set-up: coating buffer supplemented with 1 μg/ml of human PTHrP (1-34) (Peptide Research Institute); purchased Peptide Research Institute; details: antibodies expressed in COS-7 cells; H-chain humanized version a
Procedure: An ELISA plate for the determination of antigen-binding ability was prepared as follows. Each well of a 96-well ELISA plate was coated with 100 μl of a coating buffer supplemented with 1 μg/ml of human PTHrP (1-34) (Peptide Research Institute), and then blocked with 200 μl of a dilution buffer. Each well was added with each of the serial dilutions of the COS-7 cell culture supernatant in which each of the chimeric antibodies had been expressed, or added with each of the serial dilutions of each of the chimeric antibodies per se in a purified form. After the plate was incubated at room temperature and washed with PBS-Tween 20, each well of the plate was added with 100 μl of a solution of alkaline phosphatase-conjugated goat anti-human IgG antibodies (TAGO). After the plate was incubated at room temperature and washed with PBS-Tween 20, each well of the plate was added with 1 mg/ml of a substrate solution (“Sigma 104”, p-nitrophenylphosphoric acid, SIGMA). The solution was measured on its absorbance at 405 nm using Microplate Reader (Bio Rad).
An ELISA plate for determining antigen-binding ability was prepared as follows. Each well of a 96-well ELISA plate (Maxisorp, NUNC) was coated with 100 μl of a coating buffer containing 1 μg/ml of human PTHrP (1-34) and then blocked with 200 μl of a dilution buffer. Subsequently, each well was added with each of the serial dilutions of the COS-7 cell culture supernatant in which each of the hybrid antibodies and humanized antibodies was expressed, or added with each of the serial dilutions of each of the hybrid antibodies and humanized antibodies in a purified form. The plate was incubated at room temperature and washed with PBS-Tween 20. Subsequently, each well was added with 100 μl of alkaline phosphatase-conjugated goat anti-human IgG antibody (TAGO). The plate was incubated at room temperature and washed with PBS-Tween 20. Subsequently, each well was added with 1 mg/ml of a substrate solution (“Sigma 104”, p-nitrophenylphosphoric acid, SIGMA). The solution was measured on its absorbance at 405 nm using Microplate Reader (Bio Rad).

PTHrP (1-34) [2] = molecular target: T1, PTHrP (1-34); assay: Hybridoma screening by solid phase RIA; type: binding; set-up: mixed with an equivalent amount of 4 ng/ml of PTHrP (1-34); host or cells: peptide added from outside to rat ROS17/2.8-5 cells; details: hybridoma culture supernatant
Procedure: The screening of hybridomas was performed by determining the presence of PTHrP-recognition antibodies in the culture supernatant of the wells in which cell growth had been observed in HAT medium, by solid phase RIA method. The hybridomas were collected from the wells in which the binding ability to the PTHrP-recognition antibodies had been confirmed. The hybridomas thus obtained was suspended into RPMI-1640 medium containing 15% FCS supplemented with OPI-supplement (Sigma), followed by unification of the hybridomas by limiting dilution method.

| Molecule | antigen-binding (PTHrP-binding) activity compared with the chimeric #23-57-137-1 antibody (PTHrP (1-34) [1]) | binding ability to PTHrP (1-34) (PTHrP (1-34) [2]) |
| --- | --- | --- |
| m/hMBC1La λ: hybrid antibody: humanized H-chain with mouse FR1,2/human FR3,4 hybrid L-chain (from version a) (antibody, V domains shown) VH: QVQLVESGGGVVQPGRSLRLSCAASGFTFSSYGMSWVRQAPGKGLEWVATISSGGSYTYYPDSVKGRFTISRDNSKNTLYLQMNSLRAEDTAVYYCARQTTMTYFAYWGQGTLVTVSS VL: QLVLTQSSSASFSLGASAKLTCTLSSQHSTYTIEWYQQQPLKPPKYVMDLKQDGSHSTGDGIPDRFSGSSSGAERYLTISSLQSEDEADYYCGVGDTIKEQFVYVFGGGTKLTVL | the same level of antigen-binding activity as that of the chimeric #23-57-137-1 antibody |  |
| m/hMBC1Ldλ: hybrid antibody: humanized H-chain with mouse FR1,2/human FR3,4 hybrid L-chain (from version d, 87 isoleucine) (antibody, V domains shown) VH: QVQLVESGGGVVQPGRSLRLSCAASGFTFSSYGMSWVRQAPGKGLEWVATISSGGSYTYYPDSVKGRFTISRDNSKNTLYLQMNSLRAEDTAVYYCARQTTMTYFAYWGQGTLVTVSS VL: QLVLTQSSSASFSLGASAKLTCTLSSQHSTYTIEWYQQQPLKPPKYVMDLKQDGSHSTGDGIPDRFSGSSSGAERYLTISSLQSEDEADYICGVGDTIKEQFVYVFGGGTKLTVL | the same level of antigen-binding activity as that of the chimeric #23-57-137-1 antibody |  |
| hmmMBC1L(λ): hybrid antibody: humanized H-chain with human FR1/mouse FR2,3,4 hybrid L-chain (antibody, V domains shown) VH: QVQLVESGGGVVQPGRSLRLSCAASGFTFSSYGMSWVRQAPGKGLEWVATISSGGSYTYYPDSVKGRFTISRDNSKNTLYLQMNSLRAEDTAVYYCARQTTMTYFAYWGQGTLVTVSS VL: QLVLTQSPSASASLGASVKLTCTLSSQHSTYTIEWYQQQPLKPPKYVMDLKQDGSHSTGDGIPDRFSGSSSGADRYLSISNIQPEDEAMYICGVGDTIKEQFVYVFGGGTKVTVL | the same level of antigen-binding activity as that of the chimeric #23-57-137-1 antibody |  |
| #23-57-137-1: mouse monoclonal antibody against human PTHrP (1-34) from hybridoma #23-57-137-1 (FERM BP-5631) (antibody, V domains shown) VH: EVQLVESGGDLVKPGGSLKLSCAASGFTFSSYGMSWIRQTPDKRLEWVATISSGGSYTYYPDSVKGRFTISRDNAKNTLYLQMSSLKSEDTAMFYCARQTTMTYFAYWGQGTLVTVSA VL: QLVLTQSSSASFSLGASAKLTCTLSSQHSTYTIEWYQQQPLKPPKYVMDLKQDGSHSTGDGIPDRFSGSSSGADRYLSISNIQPEDEAMYICGVGDTIKEQFVYVFGGGTKVTVLGQP |  | high binding ability |
| antibody having both a humanized H-chain version “a” and a chimeric L-chain: antibody with humanized #23-57-137-1 H-chain version a and chimeric L-chain (antibody, V domains shown) VH: QVQLVESGGGVVQPGRSLRLSCAASGFTFSSYGMSWVRQAPGKGLEWVATISSGGSYTYYPDSVKGRFTISRDNSKNTLYLQMNSLRAEDTAVYYCARQTTMTYFAYWGQGTLVTVSS VL: QLVLTQSSSASFSLGASAKLTCTLSSQHSTYTIEWYQQQPLKPPKYVMDLKQDGSHSTGDGIPDRFSGSSSGADRYLSISNIQPEDEAMYICGVGDTIKEQFVYVFGGGTKVTVLGQP | the same level of PTHrP-binding activity as that of a chimeric antibody |  |
